PMC10020445, “Mechanism underlying delayed rectifying in human voltage-mediated activation Eag2 channel” (Nature Communications, 2023)

Molecular target: the molecule itself
Experiment: cryo-EM structure; purified hEag2 in 20 mM Tris-HCl pH 8.0, 150 mM KCl, 1 mM MgCl2, 0.03% digitonin, about 5 mg/ml; six maps (closed 1, closed 2, pre-open 1, pre-open 2, open, pore dilation but non-conducting) refined with C4 symmetry imposed

B1: human Eag2 (hEag2) voltage-gated potassium channel (natural protein, UniProt Q8NCM2 1-988, looked up)
chain: MPGGKRGLVAPQNTFLENIVRRSSESSFLLGNAQIVDWPVVYSNDGFCKLSGYHRADVMQKSSTCSFMYGELTDKKTIEKVRQTFDNYESNCFEVLLYKKNRTPVWFYMQIAPIRNEHEKVVLFLCTFKDITLFKQPIEDDSTKGWTKFARLTRALTNSRSVLQQLTPMNKTEVVHKHSRLAEVLQLGSDILPQYKQEAPKTPPHIILHYCAFKTTWDWVILILTFYTAIMVPYNVSFKTKQNNIAWLVLDSVVDVIFLVDIVLNFHTTFVGPGGEVISDPKLIRMNYLKTWFVIDLLSCLPYDIINAFENVDEGISSLFSSLKVVRLLRLGRVARKLDHYLEYGAAVLVLLVCVFGLVAHWLACIWYSIGDYEVIDEVTNTIQIDSWLYQLALSIGTPYRYNTSAGIWEGGPSKDSLYVSSLYFTMTSLTTIGFGNIAPTTDVEKMFSVAMMMVGSLLYATIFGNVTTIFQQMYANTNRYHEMLNNVRDFLKLYQVPKGLSERVMDYIVSTWSMSKGIDTEKVLSICPKDMRADICVHLNRKVFNEHPAFRLASDGCLRALAVEFQTIHCAPGDLIYHAGESVDALCFVVSGSLEVIQDDEVVAILGKGDVFGDIFWKETTLAHACANVRALTYCDLHIIKREALLKVLDFYTAFANSFSRNLTLTCNLRKRIIFRKISDVKKEEEERLRQKNEVTLSIPVDHPVRKLFQKFKQQKELRNQGSTQGDPERNQLQVESRSLQNGASITGTSVVTVSQITPIQTSLAYVKTSESLKQNNRDAMELKPNGGADQKCLKVNSPIRMKNGNGKGWLRLKNNMGAHEEKKEDWNNVTKAESMGLLSEDPKSSDSENSVTKNPLRKTDSCDSGITKSDLRLDKAGEARSPLEHSPIQADAKHPFYPIPEQALQTTLQEVKHELKEDIQLLSCRMTALEKQVAEILKILSEKSVPQASSPKSQMPLQVPPQIPCQDIFSVSRPESPESDKDEIHF
notes: human Eag2 potassium channel (hEag2), UniProtKB Q8NCM2; gene placed before a PreScission protease site, followed by C-terminal EGFP and FLAG; the C-terminal GFP tag was removed with HRV 3C protease; the methods describe only one construct; FLAG stands after EGFP behind the protease site, so it leaves with the GFP tag; Residues with poor side-chain density were modelled as alanines in the …
- stoichiometry N: 4
